Experimental data as given in publication PMC4484809.

Experiments:
[1] = target: Xpo1 (full-length, 1–1071) (S. cerevisiae) (UniProt P30822)
[2] = target: Xpo1 (full-length, 1–1071) (S. cerevisiae) (UniProt P30822); remark: listed apart in the source
[3] = target: Xpo1 (full-length, 1–1071) (S. cerevisiae) (UniProt P30822); remark: listed apart in the source

Michaelis-Menten analysis of Ded1 ATPase (500 nM) against whole cell yeast RNA, with ~10 fold molar excess of Xpo1 and Ran[GTP]Q71L; fold change of the apparent KM for RNA [1]	RNA-stimulated ATPase activity of Ded1 (500 nM, 320 μg/mL whole-cell yeast RNA) with Xpo1 0.55–11 μM and Ran[GTP]Q71L 0.65–13 μM added together; fold reduction [2]	RNA duplex unwinding (helicase) by Ded1 (50 nM) with Xpo1 (550 nM) and Ran[GTP]Q71L (650 nM); fold inhibition of k unwind [3]	RNA duplex unwinding (helicase) by Ded1 I13A (50 nM) with Xpo1 (550 nM) and Ran[GTP]Q71L (650 nM); fold inhibition of k unwind [3]	Substance
50 fold	2 fold	5 fold	–	Ded1 (full-length, 1–604) (from UniProt P06634 1-604) (natural protein)
–	–	–	< 2 fold	Ded1_(I13A) (full-length Ded1, I13A) (from UniProt P06634 1-604) (natural protein)
